Results as given in the supplement of paper PMC11780869.

Test system: Bacillus subtilis
Test: cleaved RNA product abundance (RNA/gDNA barcode ratio) relative to median wild-type variant (ratio to wild type); higher = more accumulation of the downstream cleavage product
Conditions: cleavage site: cggR-gapA (positions -7 to +36 mutated)
Procedure, shortened: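 Cleaved product abundance was measured with barcoded reporter mRNAs (truncated aprE or tetM) carrying mutagenized RNase Y cleavage-site windows in the B. subtilis chromosome. Cultures in LB at 37°C grew from OD600 0.0003 to 0.3. Gel-selected cleaved RNA was reverse transcribed and barcode-sequenced with genomic DNA barcodes, and the RNA:gDNA barcode ratio per construct was scaled to the median construct bearing the unmutated site.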

[1] = experiment (reporter, strain, medium): exp 2b: truncated aprE reporter, strain BJT200
[2] = experiment (reporter, strain, medium): exp 4a: truncated aprE reporter, strain BJT201 with 2% xylose (RNase J1 expressed)
[3] = experiment (reporter, strain, medium): exp 6: tetM reporter, strain 168

Sequence	cleaved RNA product abundance [1]	cleaved RNA product abundance [2]	cleaved RNA product abundance [3]
ACAGACGAAGGAGCCGCAAAGAAGTTACTAACGGATGAATAATCCCTCAATATAAATATCTCTCACTTATTTAAA	0.0838	0.162	–
ACAGACGAAGGAGCCGCAAAGAAGTTACTAAGGAATGAATAATCCCTCAATATAAATATCTCTCACTTATTTAAA	0.0952	0.143	–
ACAGACGAAGGAGCCGCAAAGAAGTTACTAAGGCATGAATAATCCCTCAATATAAATATCTCTCACTTATTTAAA	–	0.112	–
ACAGACGAAGGAGCCGCAAAGAAGTTACTAAGGGAAGAATAATCCCTCAATATAAATATCTCTCACTTATTTAAA	–	0.138	–
ACAGACGAAGGAGCCGCAAAGAAGTTACTAAGGGACGAATAATCCCTCAATATAAATATCTCTCACTTATTTAAA	0.131	–	–
ACAGACGAAGGAGCCGCAAAGAAGTTACTAAGGGATAAATAATCCCTCAATATAAATATCTCTCACTTATTTAAA	0.206	0.224	–
ACAGACGAAGGAGCCGCAAAGAAGTTACTAAGGGATCAATAATCCCTCAATATAAATATCTCTCACTTATTTAAA	–	0.208	–
ACAGACGAAGGAGCCGCAAAGAAGTTACTAAGGGATGAACAATCCCTCAATATAAATATCTCTCACTTATTTAAA	–	0.266	–
ACAGACGAAGGAGCCGCAAAGAAGTTACTAAGGGATGAATAAACCCTCAATATAAATATCTCTCACTTATTTAAA	–	0.14	–
ACAGACGAAGGAGCCGCAAAGAAGTTACTAAGGGATGAATAATCACTCAATATAAATATCTCTCACTTATTTAAA	–	0.177	–
ACAGACGAAGGAGCCGCAAAGAAGTTACTAAGGGATGAATAATCCCACAATATAAATATCTCTCACTTATTTAAA	0.126	0.153	–
ACAGACGAAGGAGCCGCAAAGAAGTTACTAAGGGATGAATAATCCCTAAATATAAATATCTCTCACTTATTTAAA	–	0.253	–
ACAGACGAAGGAGCCGCAAAGAAGTTACTAAGGGATGAATAATCCCTCAAAATAAATATCTCTCACTTATTTAAA	–	0.288	–
ACAGACGAAGGAGCCGCAAAGAAGTTACTAAGGGATGAATAATCCCTCAATATAAATATCTCTCACTTATTTAAA	0.219	0.314	0.275
ACAGACGAAGGAGCCGCAAAGAAGTTACTAAGGGATGAATAATCCCTCAATATATATATCTCTCACTTATTTAAA	–	0.346	–
ACAGACGAAGGAGCCGCAAAGAAGTTACTAAGGGATGAATAATCCCTCATTATAAATATCTCTCACTTATTTAAA	0.218	0.342	–
ACAGACGAAGGAGCCGCAAAGAAGTTACTAAGGGATGAATAATCCCTCGATATAAATATCTCTCACTTATTTAAA	–	0.227	–
ACAGACGAAGGAGCCGCAAAGAAGTTACTAAGGGATGAATAATCGCTCAATATAAATATCTCTCACTTATTTAAA	0.0765	0.0864	–
ACAGACGAAGGAGCCGCAAAGAAGTTACTAAGGGATGAATAATCTCTCAATATAAATATCTCTCACTTATTTAAA	0.149	0.22	–
ACAGACGAAGGAGCCGCAAAGAAGTTACTAAGGGATGAATAATTCCTCAATATAAATATCTCTCACTTATTTAAA	–	0.24	–
ACAGACGAAGGAGCCGCAAAGAAGTTACTAAGGGATGAATACTCCCTCAATATAAATATCTCTCACTTATTTAAA	0.107	–	–
ACAGACGAAGGAGCCGCAAAGAAGTTACTAAGGGATGAATTATCCCTCAATATAAATATCTCTCACTTATTTAAA	0.199	0.25	–
ACAGACGAAGGAGCCGCAAAGAAGTTACTAAGGGATGATTAATCCCTCAATATAAATATCTCTCACTTATTTAAA	0.155	–	–

Sequence	cleaved RNA product abundance [1]	cleaved RNA product abundance [2]	cleaved RNA product abundance [3]
ACAGACGAAGGAGCCGCAAAGAAGTTACTAAGGGATGCATAATCCCTCAATATAAATATCTCTCACTTATTTAAA	–	0.235	–
ACAGACGAAGGAGCCGCAAAGAAGTTACTAAGGGATGGATAATCCCTCAATATAAATATCTCTCACTTATTTAAA	–	0.208	–
ACAGACGAAGGAGCCGCAAAGAAGTTACTAAGGGATTAATAATCCCTCAATATAAATATCTCTCACTTATTTAAA	0.169	0.299	–
ACAGACGAAGGAGCCGCAAAGAAGTTACTAAGGGGTGAATAATCCCTCAATATAAATATCTCTCACTTATTTAAA	0.144	–	–
ACAGACGAAGGAGCCGCAAAGAAGTTACTAAGGTATGAATAATCCCTCAATATAAATATCTCTCACTTATTTAAA	0.103	0.15	0.0813
ACAGACGAAGGAGCCGCAAAGAAGTTACTAAGTGATGAATAATCCCTCAATATAAATATCTCTCACTTATTTAAA	0.0989	0.102	–
ACAGACGAAGGAGCCGCAAAGAAGTTACTAATGGATGAATAATCCCTCAATATAAATATCTCTCACTTATTTAAA	0.112	0.172	–
ACAGACGAAGGAGCCGCAAAGAAGTTACTATGGGATGAATAATCCCTCAATATAAATATCTCTCACTTATTTAAA	–	0.228	–
ACAGACGAAGGAGCCGCAAAGAAGTTAGAAAGGGATGAATAATCCCTCAATATAAATATCTCTCACTTATTTAAA	–	0.426	–
ACAGACGAAGGAGCCGCAAAGAAGTTAGTAAGCGATGAATAATCCCTCAATATAAATATCTCTCACTTATTTAAA	–	0.0715	–
ACAGACGAAGGAGCCGCAAAGAAGTTAGTAAGGAATGAATAATCCCTCAATATAAATATCTCTCACTTATTTAAA	0.0912	–	–
ACAGACGAAGGAGCCGCAAAGAAGTTAGTAAGGGAAGAATAATCCCTCAATATAAATATCTCTCACTTATTTAAA	–	0.302	–
ACAGACGAAGGAGCCGCAAAGAAGTTAGTAAGGGAGGAATAATCCCTCAATATAAATATCTCTCACTTATTTAAA	0.123	0.199	–
ACAGACGAAGGAGCCGCAAAGAAGTTAGTAAGGGATCAATAATCCCTCAATATAAATATCTCTCACTTATTTAAA	–	0.305	–
ACAGACGAAGGAGCCGCAAAGAAGTTAGTAAGGGATGAATAAACCCTCAATATAAATATCTCTCACTTATTTAAA	–	0.158	–
ACAGACGAAGGAGCCGCAAAGAAGTTAGTAAGGGATGAATAATACCTCAATATAAATATCTCTCACTTATTTAAA	–	0.151	–
ACAGACGAAGGAGCCGCAAAGAAGTTAGTAAGGGATGAATAATCCATCAATATAAATATCTCTCACTTATTTAAA	0.251	–	–
ACAGACGAAGGAGCCGCAAAGAAGTTAGTAAGGGATGAATAATCCCTCAATATAAATATCTCTCACTTATTTAAA	0.306	0.443	0.559
ACAGACGAAGGAGCCGCAAAGAAGTTAGTAAGGGATGAATAATCCCTCAATATAAATGTCTCTCACTTATTTAAA	0.187	–	–
ACAGACGAAGGAGCCGCAAAGAAGTTAGTAAGGGATGAATAATCCCTTAATATAAATATCTCTCACTTATTTAAA	–	0.724	–
ACAGACGAAGGAGCCGCAAAGAAGTTAGTAAGGGATGAATAATCCGTCAATATAAATATCTCTCACTTATTTAAA	–	0.218	–
ACAGACGAAGGAGCCGCAAAGAAGTTAGTAAGGGATGAATAATCCTTCAATATAAATATCTCTCACTTATTTAAA	0.29	–	–
ACAGACGAAGGAGCCGCAAAGAAGTTAGTAAGGGATTAATAATCCCTCAATATAAATATCTCTCACTTATTTAAA	–	0.406	–
